One assay concerns the target T1, SBP-tagged HER3-ECD (human, UniProt P21860 20-643).
T1 construct: not shown: SBP tag
Put plainly: time-resolved fluorescence, 10 nM Eu-labelled Heregulin-beta on plate-bound SBP-tagged HER3-ECD. How it is done: On the next day the wells were washed three times with washing buffer (PBS+0.05% Tween-20) and blocked with PBS containing 1% BSA for one hour. After another three washes with washing buffer, 40 μl antibody solution (in Delfia Binding Buffer) was added to each well as a 2× stock of the desired final concentrations (10⁻³ to 10³ nM, alternatively 10⁻⁴ to 10² nM). Immediately […] of 20 nM Europium-labeled Heregulin-beta (PeproTech, Cat. #100-03) was added to achieve a final concentration of 10 nM. The plates were incubated on a shaker at room temperature for two hours. Following three washes with Delfia Wash Buffer, Delfia Enhancement Solution was added and incubated on a shaker for 15 minutes (light protected). Finally, the plates were measured in a Tecan Infinite F200 reader using a time-resolved fluorescence measurement protocol.

The target of assay [1] is T2, human recombinant HER3 Extracellular Domain (HER3 ECD) (human, UniProt P21860 20-643).
T2 construct: 68 kDa; also called human-Her3-ECD
Put plainly: SPR Biacore T200, antibody captured, HER3-ECD as analyte, 37 C. (In SPR one partner is held on a chip, and binding of the other changes the refractive index at the surface.)

The target of assay [2] is T3, HER1 (EGFR) ECD peptide hairpin, overlapping immobilized 15-mer peptides (human, UniProt P00533 265-283, limits assumed).
T3 construct: domain: peptide hairpin (β-hairpin); CelluSpots 15-mer library; cysteines replaced by serines; also called hairpin motive in EGFR
T3 peptide (looked up): PPLMLYNPTTYQMDVNPEG
In words: CelluSpots array of overlapping 15-mer peptides.

Assay [3] concerns the target T4, HER2 ECD peptide hairpin, overlapping immobilized 15-mer peptides (human, UniProt P04626 269-287, limits assumed).
T4 construct: domain: peptide hairpin (β-hairpin); CelluSpots 15-mer library; cysteines replaced by serines; also called hairpin motive in the HER2 ECD
T4 peptide (looked up): PALVTYNTDTFESMPNPEG
Put plainly: CelluSpots array of overlapping 15-mer peptides.

In assay [4] the target is T5, HER3 ECD-HRG complex (Heregulin-activated Her-3 ECD) (human, UniProt P21860 20-643).
T5 construct: receptor-ligand complex made by preincubating HER3 ECD with a five-fold molar excess of Heregulin; also called Heregulin/Her-3 ECD; Heregulin-complexed Her-3 ECD
In words: SPR, 90 nM Heregulin*Her-3 ECD complex on captured antibody.

Assay [5] concerns the target T2, human recombinant HER3 Extracellular …. Put plainly: ELISA, antigen coated, hybridoma supernatant. The procedure:
(§1) For the ELISA screening an antigen down format was used. […] Hybridoma Supernatant was added to the plates and incubated for 1 h at room temperature. Bound antibody was detected with a HRP-labeled F(ab′)₂ goat anti-mouse Fcγ (Dianova) and ABTS (Roche) was used as a HRP-substrate.
(§2) As negative controls the scaffold proteins TtSlyDcas and TgSlyDΔIF were used.
Background: An ELISA detects its analyte on a solid surface through an enzyme-linked reagent.

The target of assay [6] is T6, human HER1 Extracellular Domain (HER1 ECD) (human, UniProt P00533 25-645).
T6 construct: also called EGFR ECD
In words: ELISA, antigen coated, hybridoma supernatant. How it is done:
as §1, §2

Assay [7] deals with human HER2 Extracellular Domain (HER2 ECD) (human, UniProt P04626 23-652). In words: ELISA, antigen coated, hybridoma supernatant. How it is done:
as §1, §2

Assay [8] addresses T7, human recombinant HER4 Extracellular Domain (HER4 ECD) (human, UniProt Q15303 26-651).
T7 sequence: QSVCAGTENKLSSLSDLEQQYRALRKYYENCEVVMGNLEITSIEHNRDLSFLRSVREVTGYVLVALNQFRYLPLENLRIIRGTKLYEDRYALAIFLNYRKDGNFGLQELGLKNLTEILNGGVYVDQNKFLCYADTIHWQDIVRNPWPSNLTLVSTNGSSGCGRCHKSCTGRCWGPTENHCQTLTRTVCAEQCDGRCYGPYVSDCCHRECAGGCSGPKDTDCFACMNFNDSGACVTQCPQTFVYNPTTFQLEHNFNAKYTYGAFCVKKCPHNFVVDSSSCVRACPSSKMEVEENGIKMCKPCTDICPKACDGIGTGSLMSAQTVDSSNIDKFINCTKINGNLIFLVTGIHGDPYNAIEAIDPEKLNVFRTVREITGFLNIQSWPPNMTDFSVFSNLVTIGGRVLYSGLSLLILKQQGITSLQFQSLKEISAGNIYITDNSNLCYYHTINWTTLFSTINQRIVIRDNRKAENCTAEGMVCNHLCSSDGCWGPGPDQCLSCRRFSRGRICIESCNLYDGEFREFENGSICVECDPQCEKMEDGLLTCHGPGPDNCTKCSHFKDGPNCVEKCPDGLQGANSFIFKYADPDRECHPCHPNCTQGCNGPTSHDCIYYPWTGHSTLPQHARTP
Put plainly: ELISA, antigen coated, hybridoma supernatant. How it is done:
as §1, §2

Another assay has as its target T8, TtSlyDcas.
T8 construct: negative control scaffold without the HER3 β-hairpin
T8 chain: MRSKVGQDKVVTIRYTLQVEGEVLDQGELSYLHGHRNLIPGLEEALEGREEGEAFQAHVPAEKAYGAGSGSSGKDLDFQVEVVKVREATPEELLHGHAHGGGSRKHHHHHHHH
Put plainly: ELISA, antigen coated, hybridoma supernatant. The procedure: as §1, §2

In a further assay the target is T9, TgSlyDΔIF.
T9 construct: negative control scaffold without insert (Thermococcus gammatolerans SlyD); also called TgSlyDAIF
T9 chain: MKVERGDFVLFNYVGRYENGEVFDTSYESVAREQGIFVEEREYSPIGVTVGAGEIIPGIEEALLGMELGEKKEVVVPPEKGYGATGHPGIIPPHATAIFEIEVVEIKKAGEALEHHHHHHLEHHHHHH
Put plainly: ELISA, antigen coated, hybridoma supernatant. How it is done:
as §1, §2

The target of a further assay is T10, TtSlyDcas-Her3.
T10 chain: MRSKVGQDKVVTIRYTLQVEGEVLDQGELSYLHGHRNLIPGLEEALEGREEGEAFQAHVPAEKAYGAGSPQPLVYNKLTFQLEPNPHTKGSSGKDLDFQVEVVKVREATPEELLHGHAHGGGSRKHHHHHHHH
Put plainly: ELISA, antigen coated, hybridoma supernatant. How it is done: as §1, §2

The next assay concerns the target T11, TtSlyDcys-Her3.
T11 chain: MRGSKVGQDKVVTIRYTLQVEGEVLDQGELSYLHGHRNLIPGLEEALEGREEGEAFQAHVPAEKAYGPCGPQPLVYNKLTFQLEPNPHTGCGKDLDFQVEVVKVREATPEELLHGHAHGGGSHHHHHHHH
In words: ELISA, antigen coated, hybridoma supernatant. The procedure: as §1, §2

The target of the next assay is T12, TgSlyDser-Her3.
T12 chain: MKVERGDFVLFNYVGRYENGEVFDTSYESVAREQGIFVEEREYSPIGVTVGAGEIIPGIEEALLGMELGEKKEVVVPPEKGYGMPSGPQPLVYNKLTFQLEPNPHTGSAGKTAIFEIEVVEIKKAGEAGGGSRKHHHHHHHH
In words: ELISA, antigen coated, hybridoma supernatant. The procedure:
as §1, §2

Another assay concerns the target T13, TgSlyDcys-Her3.
T13 chain: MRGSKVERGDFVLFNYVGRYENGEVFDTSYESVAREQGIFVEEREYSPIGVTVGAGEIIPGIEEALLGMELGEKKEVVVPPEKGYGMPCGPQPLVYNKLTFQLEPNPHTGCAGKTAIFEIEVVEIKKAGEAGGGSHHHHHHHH
Put plainly: ELISA, antigen coated, hybridoma supernatant. The procedure: as §1, §2

For assay [9], the target named is T14, HER1, full length, on transfected HEK293 cells (human, UniProt P00533 25-1210).
T14 construct: HEK293 transiently transfected with a plasmid coding for full length HER1; also called EGFR
In words: IHC on HEK293 cells transiently transfected with full length HER1. How it is done:
(§3) All selected clones were tested for reactivity and specificity in IHC. […] After an additional fixation in formalin overnight the Agarose blocks were embedded in paraffin. Untransfected HEK293 cells were used as negative controls and treated accordingly to the transfected cells. After paraffin embedding 3 μm thin sections were prepared using a microtome. The sections were mounted on glass microscopy slides and dried for 2 h. All further steps of the immunohistochemical staining procedure were carried out using a Ventana Benchmark XT. The slides were dewaxed and antigen retrieval was performed by applying heat for 1 hour. For antigen retrieval the Ventana buffer CC1 was used. The antibodies were used at a concentration of 1 μg/ml. For the detection of bound antibody the Ventana UltraView detection kit was used.

Assay [10] addresses T15, HER2, full length, on cells (transfected HEK293, MCF7) (human, UniProt P04626 23-1255). Put plainly: IHC on HEK293 cells transiently transfected with full length HER2. The procedure: as §3
Assay [11] has as its target T16, HER4, full length, on transfected HEK293 cells (human, UniProt Q15303 26-1308). In words: IHC on HEK293 cells transiently transfected with full length HER4. The procedure: as §3
For assay [12], the target named is T14, HER1, full length, on transfected …. In words: IHC on fixed transfected HEK293 cells. The procedure: as §3
In assay [13] the target is T15, HER2, full length, on cells …. In words: IHC on fixed transfected HEK293 cells. How it is done: as §3
Assay [14] deals with T16, HER4, full length, on transfected …. Put plainly: IHC on fixed transfected HEK293 cells. The procedure: as §3

Broadly, the Kd is a measure of binding affinity in units of concentration.

B1: Europium-labeled Heregulin-beta (PeproTech, Cat. #100-03) (ligand)
chain: SHLVKCAEKEKTFCVNGGECFMVKDLSNPSRYLCKCPNEFTGDRCQNYVMASFYKHLGIEFMEAE
modifications: also: europium label, position not given here
notes: bought fragment; also called HRG; Human Heregulin β-1 fragment (as provided from Preprotech)
B1: the binding result with SBP-tagged HER3-ECD is “binds”.

B2: anti-HER3 antibody MOR09823 (described in WO2012/22814) (antibody, V domains shown)
VH: QVQLVESGGGLVQPGGSLRLSCAASGFTFSSYAMSWVRQAPGKGLEWVSVTGAVGRTYYPDSVKGRFTISRDNSKNTLYLQMNSLRAEDTAVYYCARWGDEGFDIWGQGTLVTVSS
VL: DIQMTQSPSSLSASVGDRVTITCRASQGISNWLAWYQQKPGKAPKLLIYGASSLQSGVPSRFSGSGSGTDFTLTISSLQPEDFAVYYCQQYSSFPTTFGQGTKVEIKR
In the case of B2, the Kd in [1] was 0.3 nM.

B3: anti-HER3/HER4 antibody M-05-74 (antibody, V domains shown)
VH: QVQLQQSGAELAKPGASVKMSCKTSGYTLTDYWIHWVKQRPGQGLEWIGYINPYTGYTESNQKFKDKATLTADKSSNTAYIQLSSLTSEDSAVYYCARPYYYGDYWGQGTTLTVSS
VL: QIVLTQSPAIMSASPGERVTITCSASSSVSYMHWFQQKPGTSPKLLIYSTSNLASGVPARFSGSGSGTSYSLTISRMEAEDAATYYCQQRSSYPFTFGSGTKLEIK
notes: also called M-074; M-5-74
Turning to B3, the binding result in [2] and in assay [3] was “no binding (tested: 1 µg/mL)” throughout. The t½ diss in assay [4] stood at 18 min.

B4: anti-HER3 antibody M-17-07 (antibody, V domains shown)
VH: EVQLQQSGTVLARPGASVKMSCKASGYSFTSYWIHWVKQRPGQGLEWIGAIYPGNSDTTYNQKFKGKAKLTAVTSASTAYMELSSLTNEDSAVYYCARTGVWTSYYFDYWGQGTTLTVSS
VL: DIQMTQSPASLSASVGETVTITCRASENIYSNLAWYQQKQGKSPQLLVYAATNLADGVPSRFSGSGSGTQFSLRINSLQPEDFGSYYCQHFYGTPFTFGTGTKLEIK
notes: mouse hybridoma clone
As for B4, the “OD 405 nm” value was 3.1 OD in [5]; 0.025 OD in assay [6]; 0.03 OD in [7]; 0.03 OD in [8]; 0.022 OD in the assay with TtSlyDcas; 0.021 OD in the assay with TgSlyDΔIF. Further, the “OD 405 nm” value in the assay with TtSlyDcas-Her3 is 1.4 OD; with TtSlyDcys-Her3 it was 1.53 OD; with TgSlyDser-Her3 it was 1.4 OD; in the assay with TgSlyDcys-Her3, 1.62 OD. For the same molecule, the binding result in assay [6], in [7], in assay [8], in [9], in assay [10] and in assay [11] was “no binding” each time.

B5: anti-HER3 antibody M-17-12 (antibody, V domains shown)
VH: B4 VH
VL: B4 VL
notes: mouse hybridoma clone; VH and VL stated identical to those of M-17-02
On to B5, for which the binding result is reported as “no binding (tested: 1 µg/ml)” in assay [12]; “no binding (tested: 1 µg/ml)” in assay [13]; “no binding (tested: 1 µg/ml)” in assay [14]; “no binding” in assay [6]; “no binding” in [7]; “no binding” in [8]. Besides, the “OD 405 nm” value worked out at 3.06 OD in assay [5]; 0.022 OD in assay [6]; 0.023 OD in assay [7]; 0.051 OD in assay [8]; 0.022 OD in the assay with TtSlyDcas; 0.022 OD with TgSlyDΔIF. Further, the “OD 405 nm” value in the assay with TtSlyDcas-Her3 is 1.31 OD; in the assay with TtSlyDcys-Her3 it was 1.53 OD; with TgSlyDser-Her3, 1.66 OD; in the assay with TgSlyDcys-Her3, 1.37 OD.

The record behind these values is patent publication US20180094062A1 (Hoffmann-La Roche, published 2018).
